# Non-standard residues stand in square brackets, D forms with d. No end group written: not given here. pY = N[C@@H](Cc1ccc(OP(=O)(O)O)cc1)C(=O)O
# T1: GST-fused pK15 cytoplasmic tail (pK15 CT WT), phosphorylated in vitro by Src, Q9QR69
# T1 chain: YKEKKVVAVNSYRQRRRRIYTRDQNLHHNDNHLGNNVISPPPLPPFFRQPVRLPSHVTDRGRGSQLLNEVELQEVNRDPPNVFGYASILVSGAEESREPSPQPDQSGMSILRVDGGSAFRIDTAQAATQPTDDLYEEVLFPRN
# T2: GST-pK15 CT N2 truncation mutant, phosphorylated in vitro by 2xStrep-Src, Q9QR69
# T2 chain: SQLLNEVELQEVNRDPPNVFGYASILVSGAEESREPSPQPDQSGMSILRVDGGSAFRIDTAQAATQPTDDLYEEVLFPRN
# T3: PLCγ1 tSH2 domain (aa 545-790) (UniProt P19174 545-790)
# T3 construct: also called WT tSH2; source: E. coli BL21(DE3), purified (HisTrap, 3C cleavage, SEC)
# T3 sequence (looked up): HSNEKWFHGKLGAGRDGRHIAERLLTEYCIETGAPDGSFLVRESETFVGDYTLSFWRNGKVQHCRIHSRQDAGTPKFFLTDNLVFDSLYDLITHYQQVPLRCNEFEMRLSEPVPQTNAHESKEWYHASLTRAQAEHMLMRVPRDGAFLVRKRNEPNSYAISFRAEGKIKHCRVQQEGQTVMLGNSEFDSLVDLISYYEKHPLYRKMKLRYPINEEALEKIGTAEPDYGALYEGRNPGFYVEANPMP
# T4: PLCγ1 tSH2 R586L (aa 545-790) (UniProt P19174 545-790, R586L)
# T4 construct: source: E. coli BL21(DE3), purified (HisTrap, 3C cleavage, SEC)
# T4 sequence (looked up): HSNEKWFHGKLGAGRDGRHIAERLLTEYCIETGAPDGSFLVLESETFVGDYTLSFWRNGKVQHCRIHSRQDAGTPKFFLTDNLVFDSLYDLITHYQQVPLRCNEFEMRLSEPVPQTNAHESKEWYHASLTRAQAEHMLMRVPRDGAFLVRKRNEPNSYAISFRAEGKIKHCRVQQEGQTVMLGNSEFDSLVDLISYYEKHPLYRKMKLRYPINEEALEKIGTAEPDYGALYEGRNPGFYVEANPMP
# T5: PLCγ1 tSH2 R694L (aa 545-790) (UniProt P19174 545-790, R694L)
# T5 construct: source: E. coli BL21(DE3), purified (HisTrap, 3C cleavage, SEC)
# T5 sequence (looked up): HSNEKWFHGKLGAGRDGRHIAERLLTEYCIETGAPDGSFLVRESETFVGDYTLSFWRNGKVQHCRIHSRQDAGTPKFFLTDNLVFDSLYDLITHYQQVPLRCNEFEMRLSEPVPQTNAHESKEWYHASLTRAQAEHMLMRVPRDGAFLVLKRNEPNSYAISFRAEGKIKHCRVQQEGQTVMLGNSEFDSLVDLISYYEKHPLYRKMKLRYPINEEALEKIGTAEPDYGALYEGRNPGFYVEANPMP
# T6: PLCγ1 nSH2 domain (aa 545-662) (UniProt P19174 545-662)
# T6 construct: 15N-labelled for the NMR titration; source: E. coli BL21(DE3), purified (HisTrap, 3C cleavage, SEC)
# T6 sequence (looked up): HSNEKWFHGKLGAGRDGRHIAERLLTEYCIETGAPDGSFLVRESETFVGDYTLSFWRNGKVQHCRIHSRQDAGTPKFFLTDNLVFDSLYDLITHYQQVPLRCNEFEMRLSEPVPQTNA
# T7: PLCγ1 cSH2 domain (aa 668-790) (UniProt P19174 668-790)
# T7 construct: PLCγ1 C-terminal SH2 domain with the cSH2-SH3 linker, residues 668-790; 15N-labelled for the NMR titration; also called cSH2 (668–790); source: E. coli BL21(DE3), purified (HisTrap, 3C cleavage, SEC)
# T7 sequence (looked up): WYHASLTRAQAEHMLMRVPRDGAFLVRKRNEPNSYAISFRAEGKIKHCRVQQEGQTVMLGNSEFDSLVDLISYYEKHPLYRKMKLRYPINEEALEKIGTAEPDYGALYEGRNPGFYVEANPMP
# Key:
# [1] = tested on: PLCγ1 tSH2 domain (Src-mediated phosphorylation, Y^783); test: in vitro Src kinase assay, PLCγ1 tSH2 Y783 phosphorylation; type: biochemical; settings: 0.6 μM tSH2, 0.085 μM Src, 1.25–5 μM peptide or fixed 5.0 μM; 37°C; 1 hour or 45 min (method); pY783 Western blot
# Description: Fig 7 The pK15 CT domain enhances Src-mediated phosphorylation of the PLCγ1 tSH2 domain. (A) The purified PLCγ1 tSH2 domain (0.6 μM) was incubated with limiting amounts (0.085 μM) of recombinant purified Src kinase expressed in insect cells in the presence of increasing concentrations (1.25–5 μM) of phosphorylated peptides representing the last 12 (pK15 12mer) or 35 (pK15 35mer) amino acids of the pK15 cytoplasmic domain for 1 hour at 37°C. The reaction was stopped using SDS sample buffer and analysed by SDS-PAGE and Western blot using an antibody to the PLCγ1 pY^783 residue (top panel) or to the His tag on the recombinant tSH2 domain (bottom panel). (B) Same as above, except that a fixed concentration (5.0 μM) of the 12mer peptide, the 35mer peptide or the pK15 truncation construct GST-pK15 CT^N2 [51] were used. The increased phosphorylation of the tSH2 domain in the presence of the 35mer peptide and pK15 CT^N2 can be seen. (C) Increasing concentrations of the phosphorylated pK15 12mer peptide were used to inhibit the increased src-mediated phosphorylation of tSH2 induced by 2.5 μM of the pK15 35mer peptide. Experimental conditions were as in panel A.
# To test the impact of a pK15 CT fragment (pK15 CT^N2) or phosphorylated pK15 peptides representing the last 12 (DDLp[…]) or 35 ([…]pYEEVLFRN) amino acids of pK15 CT on the Src-mediated phosphorylation of the PLCγ1 tSH2 domain, GST-pK15CT^N2 was first phosphorylated with Src in vitro as described in the preceding paragraph. Phosphorylated GST-pK15 CT^N2 or the phosphorylated pK15 peptides, suspended in 50 mM Tris pH7.4, 300 mM NaCl, 1 mM DTT, were then added to the purified recombinant tSH2 domain (0.6 μM) together with a limiting amount of recombinant Src kinase (0.085 μM) in kinase buffer (20 mM Tris pH7.4, 20 mM NaCl, 1 mM DTT, 10 mM MgCl2, 0.2 mM ATP, 0.5 mM Sodium orthovanadate, 0.5 mM β-glycerophosphate) and the reaction allowed to proceed for 45 min. The reaction mix was then analysed by Western blot using an antibody to the phosphorylated Y^783 in the linker region of the PLCγ1 tSH2 domain and an antibody to the 5x His tag. To test the inhibitory effect of the phosphorylated 12mer pK15 peptide on the enhancement of PLCγ1 tSH2 domain phosphorylation induced by the pK15 35mer peptide, increasing concentrations (1.25–5.0 μM) of the 12mer peptide were added to a reaction mix containing the purified recombinant tSH2 domain (2.5 μM), the phosphorylated pK15 35mer (2.5 μM), and recombinant Src kinase (0.085 μM). Following a 45 min incubation at 37°C, the reaction mixture was analysed by Western blot as above.
# [2] = target: GST-fused pK15 cytoplasmic tail (pK15 CT WT), phosphorylated in vitro by Src (UniProt Q9QR69); test: AlphaLISA; settings: read off a plot
# [3] = target: GST-pK15 CT N2 truncation mutant, phosphorylated in vitro by 2xStrep-Src (UniProt Q9QR69); test: AlphaLISA; settings: parent: est. 17000; read off a plot
# [4] = target: T1, GST-fused pK15 cytoplasmic tail (pK15 …); test: AlphaLISA; settings: chain shown with the change;, read off a plot
# [5] = target: T2, GST-pK15 CT N2 truncation mutant, …; test: AlphaLISA; settings: chain shown with the change;, read off a plot
# [6] = target: T3, PLCγ1 tSH2 domain (aa 545-790); test: microfluidic diffusional sizing (Fluidity One-W); 200 nM 5,6-FAM peptide held constant, PLCγ1 domains varied from 0 nM to 8000 nM, room temperature, 100 mM MES, 150 mM NaCl, 3 mM TCEP, pH 6.5; hydrodynamic radius fitted; triplicate; settings: both partners purified
# [7] = target: T4, PLCγ1 tSH2 R586L (aa 545-790); test: as above; settings: both partners purified
# [8] = target: T5, PLCγ1 tSH2 R694L (aa 545-790); test: as above; settings: both partners purified
# [9] = target: T6, PLCγ1 nSH2 domain (aa 545-662); test: as above; settings: both partners purified
# [10] = target: T7, PLCγ1 cSH2 domain (aa 668-790); test: as above; settings: both partners purified
molecule,measurement,setting,value
"SILRVDGGSAFRIDTAQAATQPTDDLpYEEVLFRN [pK15 35mer, phosphorylated pK15 peptide corresponding to the last 35 amino acids of pK15 CT]",effect on Src-mediated phosphorylation of PLCγ1 tSH2,[1],enhanced the Src-mediated phosphorylation of the PLCγ1 tSH2 domain in a dose dependent manner
His-tagged purified PLCγ1 cSH2 domain R694L,response,[2]; parent: est. 19000,1000
same,response,[3],250
His-tagged purified PLCγ1 SA (γ-specific array) R694L,response,[2]; parent: est. 4000,1400
His-tagged purified PLCγ1 tandem SH2 (tSH2) domain R694L,response,[2]; parent: est. 13000,850
His-tagged purified PLCγ1 tandem SH2 (tSH2) domain R586L; R694L,response,[2]; parent: est. 13000,350
His-tagged purified PLCγ1 SA (γ-specific array) R586L; R694L,response,[2]; parent: est. 4000,700
His-tagged purified PLCγ1 tandem SH2 (tSH2) domain R586L (protein) HSNEKWFHGKLGAGRDGRHIAERLLTEYCIETGAPDGSFLVLESETFVGDYTLSFWRNGKVQHCRIHSRQDAGTPKFFLTDNLVFDSLYDLITHYQQVPLRCNEFEMRLSEPVPQTNAHESKEWYHASLTRAQAEHMLMRVPRDGAFLVRKRNEPNSYAISFRAEGKIKHCRVQQEGQTVMLGNSEFDSLVDLISYYEKHPLYRKMKLRYPINEEALEKIGTAEPDYGALYEGRNPGFYVEANPMP,response,[4]; parent: est. 13000,9800
same,response,[5]; parent: est. 14000,12000
His-tagged purified PLCγ1 SA (γ-specific array) R586L (protein) SIKNGILYLEDPVNHEWYPHYFVLTSSKIYYSEETSSDQGNEDEEEPKEVSSSTELHSNEKWFHGKLGAGRDGRHIAERLLTEYCIETGAPDGSFLVLESETFVGDYTLSFWRNGKVQHCRIHSRQDAGTPKFFLTDNLVFDSLYDLITHYQQVPLRCNEFEMRLSEPVPQTNAHESKEWYHASLTRAQAEHMLMRVPRDGAFLVRKRNEPNSYAISFRAEGKIKHCRVQQEGQTVMLGNSEFDSLVDLISYYEKHPLYRKMKLRYPINEEALEKIGTAEPDYGALYEGRNPGFYVEANPMPTFKCAVKALFDYKAQREDELTFIKSAIIQNVEKQEGGWWRGDYGGKKQLWFPSNYVEEMVNPVALEPEREHLDENSPLGDLLRGVLDVPACQIAIRPEGKNNRLFVFSISMASVAHWSLDVAADSQEELQDWVKKIREVAQ,response,[4]; parent: est. 4000,3800
same,response,[5]; parent: est. 700,300
"{5,6‑FAM}-DDL[pY]EEVLFPRN (last 12 residues of KSHV pK15 cytoplasmic tail; also called 5,6-FAM-labelled pK15 (12mer); phosphorylated pK15 peptide; source: synthetic peptide, bought: Caslo ApS) [5,6-FAM-labelled phosphorylated pK15 12mer peptide]",Kd,[6],1500 ± 450 nM
same,Kd,[7],440 ± 77 nM
same,Kd,[8],6320 ± 475 nM
same,Kd,[9],180 ± 43 nM
same,Kd,[10],166 ± 30 nM

# Reference: PMC8244865, “Recruitment of phospholipase Cγ1 to the non-structural membrane protein pK15 of Kaposi Sarcoma-associated herpesvirus promotes its Src-dependent phosphorylation” (PLoS Pathogens, 2021)
